This experiment concerns the target LOX-1 (immobilised on the ELISA plate in Examples 3 to 6; recombinant LOX-1 protein immobilised in the test tube in Example 8) (UniProt P78380). The experiment in a line: ELISA, LOX-1 immobilised at 5 ug/mL, recombinant A2 domain 0-10 ug/mL, anti-V5 detection. On the technique in general: In an ELISA, binding on a coated surface is turned into a signal by an enzyme label.

Recombinant A2 domain of the H chain of FV (NM000130.4, aa 317-656, V5-6xHis; Igk secretion signal), sequence (P12259 345-684 limits assumed, form in doubt): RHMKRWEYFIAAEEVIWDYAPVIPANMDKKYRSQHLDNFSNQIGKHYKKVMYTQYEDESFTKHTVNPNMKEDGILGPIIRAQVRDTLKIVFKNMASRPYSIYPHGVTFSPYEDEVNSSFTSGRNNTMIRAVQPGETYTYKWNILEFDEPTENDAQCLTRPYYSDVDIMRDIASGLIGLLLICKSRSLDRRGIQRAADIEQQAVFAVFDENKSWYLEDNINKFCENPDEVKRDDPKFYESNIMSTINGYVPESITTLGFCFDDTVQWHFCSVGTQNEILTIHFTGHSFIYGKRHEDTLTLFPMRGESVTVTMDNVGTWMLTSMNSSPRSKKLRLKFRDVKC

For “Recombinant A2 domain of the H chain of FV (NM000130.4, aa 317-656, V5-6xHis; Igk secretion signal) (from UniProt P12259 345-684)”, the EC50 (read off the curve) (usually the concentration giving half of the maximal effect) was 1 µg/mL.
